Reference: patent publication US20180193452A1 (NEMOURS FOUNDATION, published 2018)
Numbering of substitutions follows the chain as printed. Numbers in names are those of the source.

B1: FcεRIα extracellular domain mutant K117D (receptor)
chain: VPQKPKVSLNPPWNRIFKGENVTLTCNGNNFFEVSSTKWFHNGSLSEETNSSLNIVNAKFEDSGEYKCQHQQVNESEPVYLEVFSDWLLLQASAEVVMEGQPLFLRCHGWRNWDVYDVIYYKDGEALKYWYENHNISITNATVEDSGTYYCTGKVWQLDYESEPLNITVIKAPREKYWLQ
B2: FcεRIα extracellular domain mutant W87D (receptor)
chain: B1 chain with W87D, D117K
B3: FcεRIα extracellular domain mutant D159A (receptor)
chain: B1 chain with D117K, D159A
B4: FcεRIα extracellular domain mutant Y131A (receptor)
chain: B1 chain with D117K, Y131A
B5: FcεRIα extracellular domain mutant V155A (receptor)
chain: B1 chain with D117K, V155A
B6: FcεRIα extracellular domain mutant W113A (receptor)
chain: B1 chain with W113A, D117K

molecular target: T1, purified human IgE (Abcam) (human, UniProt P01854-1 1-428); assay: not told
T1 construct: also called free IgE; secreted IgE
T1 sequence (P01854 other isoform, or with tags, fused parts or gaps): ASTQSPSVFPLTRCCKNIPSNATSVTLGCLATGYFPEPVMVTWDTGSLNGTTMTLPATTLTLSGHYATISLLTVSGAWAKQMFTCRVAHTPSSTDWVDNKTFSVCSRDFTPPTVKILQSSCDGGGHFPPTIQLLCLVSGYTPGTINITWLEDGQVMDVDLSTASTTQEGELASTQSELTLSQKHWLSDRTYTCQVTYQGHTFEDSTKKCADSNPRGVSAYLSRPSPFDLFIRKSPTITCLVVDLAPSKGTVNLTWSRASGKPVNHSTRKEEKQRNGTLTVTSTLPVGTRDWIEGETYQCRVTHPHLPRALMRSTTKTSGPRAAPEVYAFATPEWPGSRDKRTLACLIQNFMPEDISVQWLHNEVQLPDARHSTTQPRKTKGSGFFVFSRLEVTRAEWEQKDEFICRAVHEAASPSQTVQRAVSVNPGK

Point of comparison: B1, “fold affinity reduction over wild type” value 27 fold. Against it:
- B2 — lower, 7 fold
- B3 — lower, 2 fold
- B4 — lower, 3 fold
- B5 — lower, 10 fold
- B6 — lower, 5 fold
